Where two headings read alike, the source gives them in different places.
Columns and labels:
[1] = biological target: T1, hRPA (replication protein A heterotrimer p70/p32/p14) (human, UniProt P27694;P15927;P35244 1-616;1-270;1-121); test: EMSA
[2] = biological target: T1, hRPA (replication protein A …); test: EMSA; remark: listed apart in the source

T1 sequence (P27694 whole entry, chain 1 of 3): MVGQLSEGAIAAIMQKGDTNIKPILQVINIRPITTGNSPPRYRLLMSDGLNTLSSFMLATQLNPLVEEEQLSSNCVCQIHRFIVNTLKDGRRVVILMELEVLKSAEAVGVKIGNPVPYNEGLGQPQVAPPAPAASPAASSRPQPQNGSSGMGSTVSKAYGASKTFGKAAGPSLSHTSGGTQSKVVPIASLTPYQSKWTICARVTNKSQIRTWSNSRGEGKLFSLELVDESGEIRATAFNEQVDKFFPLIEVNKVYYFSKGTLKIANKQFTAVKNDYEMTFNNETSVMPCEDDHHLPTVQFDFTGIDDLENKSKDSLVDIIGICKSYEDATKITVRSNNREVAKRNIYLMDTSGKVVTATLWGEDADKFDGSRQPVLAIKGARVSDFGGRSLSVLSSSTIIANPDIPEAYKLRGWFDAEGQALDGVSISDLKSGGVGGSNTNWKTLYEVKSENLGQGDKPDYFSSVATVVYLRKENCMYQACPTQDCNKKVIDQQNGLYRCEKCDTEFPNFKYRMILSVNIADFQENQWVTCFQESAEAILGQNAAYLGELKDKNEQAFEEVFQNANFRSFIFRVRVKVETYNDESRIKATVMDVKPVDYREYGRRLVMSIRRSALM
T1 sequence (P15927 whole entry, chain 2 of 3): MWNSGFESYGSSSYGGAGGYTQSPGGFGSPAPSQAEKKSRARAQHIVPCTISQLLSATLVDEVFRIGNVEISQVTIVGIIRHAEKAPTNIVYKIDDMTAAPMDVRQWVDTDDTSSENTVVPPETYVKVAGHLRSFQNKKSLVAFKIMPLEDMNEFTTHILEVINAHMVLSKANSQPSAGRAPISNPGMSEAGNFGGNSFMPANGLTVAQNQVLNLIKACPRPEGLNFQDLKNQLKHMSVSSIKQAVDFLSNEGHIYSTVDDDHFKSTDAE
T1 sequence (P35244 whole entry, chain 3 of 3): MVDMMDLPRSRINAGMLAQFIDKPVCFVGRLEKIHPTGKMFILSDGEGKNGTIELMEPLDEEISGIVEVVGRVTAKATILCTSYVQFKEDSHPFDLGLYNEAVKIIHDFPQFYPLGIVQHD

Binder | binding result [1] | binding result [2]
TTTTTTTTTTTTTTTTTTTTT (ssDNA) [T21] | binds | 
GGGTTAGGGTTAGGGTTAGGG (structured_DNA) [htelo] |  | binds

Reference: article PMC1635258
